Patent US20230235090A1 (HARBOUR BIOMED US, published 2023)
Where a chain is given by its changes, count along the chain named.

Tests used:
[1] = target: T1, human 4-1BB (human, UniProt Q07011 24-255); assay: FACS, CHO-K1/hu 4-1BB cells [B]
T1 construct: whole, on cells; also called CD137; TNFRSF9
Procedure: (§1) This example is intended to investigate the in vitro binding activity of anti-human 4-1BB HCAb and H2L2 monoclonal antibodies to human and cynomolgus monkey 4-1BB. Antibody binding experiments at the cellular level were conducted using a CHO-K1 cell strain overexpressing human 4-1BB (CHO-K1-hu 4-1BB, Genescript) and a CHO-K1 cell strain overexpressing cynomolgus monkey 4-1BB (CHO-K1-cyno 4-1BB, Genescript). Briefly, the CHO-K1-hu 4-1BB and CHO-K1-cyno 4-1BB cells were digested and resuspended in DMEM complete medium, and the cell density was adjusted to 1×10⁶ cells/mL. […] The cells were incubated at 4° C. for 1 h away from light. Thereafter, the cells in each well were rinsed twice with 100 μL of pre-cooled PBS, and centrifuged at 500 g at 4° C. for 5 min, and then the supernatant was discarded. […] The plate was incubated away from light at 4° C. for 30 min. The cells in each well were rinsed twice with 100 μL of pre-cooled PBS, and centrifuged at 500 g at 4° C. for 5 min, and then the supernatant was discarded. Finally, the cells in each well were resuspended in 200 μL of pre-cooled PBS, and the fluorescence signal values were read using a BD FACS CANTOII.

[2] = target: T2, cynomolgus monkey 4-1BB (cynomolgus monkey); assay: FACS, CHO-K1/cyno 4-1BB cells [B]
T2 construct: whole, on cells; also called CHO-K1-cyno 4-1BB; CHO-K1/cyno4-1BB
Procedure: as §1

[3] = target: T2, cynomolgus monkey 4-1BB; assay: FACS, CHO-K1/cyno 4-1BB cells [E]
Procedure: as §1

[4] = target: T1, human 4-1BB; assay: FACS, CHO-K1/hu 4-1BB cells [E]
Procedure: (§2) Antibody binding experiments at the cellular level were conducted using a CHO-K1 cell strain overexpressing human 4-1BB (CHO-K1-hu 4-1BB, Genescript) and a CHO-K1 cell strain overexpressing cynomolgus monkey 4-1BB (CHO-K1-cyno 4-1BB, Genescript). Briefly, the CHO-K1-hu 4-1BB and CHO-K1-cyno 4-1BB cells were digested and resuspended in DMEM complete medium, and the cell density was adjusted to 1×10⁶ cells/mL. […] The cells were incubated at 4° C. for 1 h away from light. Thereafter, the cells in each well were rinsed twice with 100 μL of pre-cooled PBS, and centrifuged at 500 g at 4° C. for 5 min, and then the supernatant was discarded. […] The plate was incubated away from light at 4° C. for 30 min. The cells in each well were rinsed twice with 100 μL of pre-cooled PBS, and centrifuged at 500 g at 4° C. for 5 min, and then the supernatant was discarded. Finally, the cells in each well were resuspended in 200 μL of pre-cooled PBS, and the fluorescence signal values were read using a BD FACS CANTOII.

[5] = target: T3, human B7-H4 (human, UniProt Q7Z7D3 25-282); assay: FACS, SK-BR-3 cells [A]
T3 construct: whole, on cells; also called VTCN1; SK-BR-3 cell line highly expressing B7-H4
T3 sequence (looked up): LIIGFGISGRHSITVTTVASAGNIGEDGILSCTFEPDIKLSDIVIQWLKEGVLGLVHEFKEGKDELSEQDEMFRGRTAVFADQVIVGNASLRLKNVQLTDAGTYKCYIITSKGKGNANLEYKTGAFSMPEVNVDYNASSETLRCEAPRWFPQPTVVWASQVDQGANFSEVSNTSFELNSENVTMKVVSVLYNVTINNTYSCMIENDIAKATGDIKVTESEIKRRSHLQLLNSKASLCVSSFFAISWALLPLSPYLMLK
Procedure: (§3) This example is intended to investigate the in vitro binding activity of anti-human B7-H4 H2L2 monoclonal antibody to human/cynomolgus monkey/mouse B7-H4. Antibody binding experiments at the cellular level were conducted using a CHO-K1 cell strain overexpressing cynomolgus monkey B7-H4 (CHO-K1/cyno B7-H4, prepared in-house by Harbour Biomed), a CHO-K1 cell strain overexpressing mouse B7-H4 (CHO-K1/m B7-H4, prepared in-house by Harbour Biomed) and an SK-BR-3 cell line highly expressing human B7-H4 (ATCC® HTB-30). Briefly, the CHO-K1/cyno B7-H4 cells, CHO-K1/m B7-H4 cells or SK-BR-3 cells were digested and resuspended with PBS containing 2% BSA. The cell density was adjusted to 1×10⁶ cells/mL. […] The cells were incubated at 4° C. for 2 h away from light. Thereafter, the cells in each well were rinsed twice with 100 μL of pre-cooled PBS containing 2% BSA, and centrifuged at 500 g at 4° C. for 5 min, and then the supernatant was discarded. […] The plate was incubated away from light at 4° C. for 1 h. The cells in each well were rinsed twice with 100 μL of pre-cooled PBS containing 2% BSA, and centrifuged at 500 g at 4° C. for 5 min, and then the supernatant was discarded. Finally, the cells in each well were resuspended in 200 μL of pre-cooled PBS containing 2% BSA, and the fluorescence signal values were read using an ACEA Novocyte3000 flow cytometer.

[6] = target: T4, cynomolgus monkey B7-H4 (cynomolgus monkey, UniProt A0A2K5U6P5 25-282); assay: FACS, CHO-K1/cyno B7H4 cells [B]
T4 construct: whole, on cells; also called CHO-K1/cyno B7-H4; CHO-K1/cynoB7H4
T4 sequence: T3 sequence (looked up) with L53I, F242L, S252A
Procedure: as §3

[7] = target: T5, mouse B7-H4 (mouse, UniProt Q7TSP5 25-257); assay: FACS, CHO-K1/m B7H4 cells [C]
T5 construct: whole, on cells; also called CHO-K1/m B7-H4; CHO-K1/mB7-H4
T5 sequence (looked up): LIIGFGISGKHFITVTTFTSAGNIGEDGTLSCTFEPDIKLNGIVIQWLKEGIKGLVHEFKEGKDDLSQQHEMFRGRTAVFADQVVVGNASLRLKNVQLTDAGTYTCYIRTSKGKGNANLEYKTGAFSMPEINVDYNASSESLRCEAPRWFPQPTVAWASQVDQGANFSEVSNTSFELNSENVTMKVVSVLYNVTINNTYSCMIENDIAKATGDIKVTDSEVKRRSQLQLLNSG
Procedure: as §3

[8] = target: T2, cynomolgus monkey 4-1BB; assay: FACS, CHO-K1/cyno 4-1BB cells [F]
Procedure: as §1

[9] = target: T1, human 4-1BB; assay: FACS, CHO-K1/hu 4-1BB cells [F]
Procedure: as §1

[10] = target: T1, human 4-1BB; assay: FACS, CHO-K1/hu 4-1BB cells [C]
Procedure: as §1

[11] = target: T2, cynomolgus monkey 4-1BB; assay: FACS, CHO-K1/cyno 4-1BB cells [C]
Procedure: as §1

[12] = target: T1, human 4-1BB; assay: FACS, CHO-K1/hu 4-1BB cells [A]
Procedure: as §1

[13] = target: T2, cynomolgus monkey 4-1BB; assay: FACS, CHO-K1/cyno 4-1BB cells [D]
Procedure: as §1

[14] = target: T1, human 4-1BB; assay: FACS, CHO-K1/hu 4-1BB cells [D]
Procedure: as §2

[15] = target: T2, cynomolgus monkey 4-1BB; assay: FACS, CHO-K1/cyno 4-1BB cells [A]
Procedure: as §1

[16] = target: T1, human 4-1BB; assay: FACS, CHO-K1/hu 4-1BB cells [H]
Procedure: as §2

[17] = target: T2, cynomolgus monkey 4-1BB; assay: FACS, CHO-K1/cyno 4-1BB cells [G]
Procedure: as §2

T1 sequence (Q07011 24-255): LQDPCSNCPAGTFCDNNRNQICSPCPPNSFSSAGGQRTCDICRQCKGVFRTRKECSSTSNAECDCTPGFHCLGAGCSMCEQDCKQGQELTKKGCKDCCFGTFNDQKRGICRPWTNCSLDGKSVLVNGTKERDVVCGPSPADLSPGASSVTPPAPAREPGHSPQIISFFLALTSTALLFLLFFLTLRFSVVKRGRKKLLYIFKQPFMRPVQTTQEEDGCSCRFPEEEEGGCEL

B1: PR001764 (antibody, human IgG1, V domains shown)
VH: EVQLLESGGGLVQPGGSLRLSCAASGFTFSSYAMSWVRQAPEKGLEWVSAISGGGGSTYYADSVKGRFTISRDNSKNTLYLQMDSLKAEDTAVYYCAKEGTTETDDYHYNMDVWGQGTTVTVSS
notes: anti-4-1BB HCAb, human IgG1 Fc
In the case of B1, the EC50 [1] is reported as 0.249 nM, the “Maximum MFI” value [1] is reported as 1560 MFI and the EC50 [2] is reported as 5.33 nM. For the same binder, the “Maximum MFI” value [2] was 77300 MFI.

B2: PR001833 (antibody, human IgG1, V domains shown)
VH: B1 VH with A50S, G54S, Y59F, D84N, K87R, Y95F, T101A, Y109F, M111T
notes: as for B1
For B2, the EC50 [3] was 1.02 nM, the “Maximum MFI” value [3] was 12600 MFI and the EC50 [4] was 0.21 nM. The “Maximum MFI” value [4] was 1710 MFI.

B3: PR002037 (antibody, human IgG1, kappa, V domains shown)
VH: QVQLVQSGAEVKKPGSSMRVSCKASEDTFSSYAISWVRQAPGQGLEWMGGTAPIFGTTNYAQKFQGRVTITADKSTSTAYMELSSLRSEDTAVYYCARGGPYFDYWGQGTLVTVSS
VL: EIVMTQSPASLSVSPGERATLSCRASQSVSSNLAWYQQKPGQAPRLLIYGASTRATGIPARVSGGGSGTEFTLTISSLQSEDFAVYCCQQYKNWPFTFGPGTKLEIKR
notes: also called 1025_B-1H11 clone
In the case of B3, the EC50 [5] is reported as 2.22 nM, the “Maximum MFI” value [5] is reported as 257000 MFI and the EC50 [6] is reported as 2.38 nM. For the same binder, the “Maximum MFI” value [6] was 1.92e+06 MFI, the EC50 [7] was 2.57 nM and the “Maximum MFI” value [7] was 1.69e+06 MFI.

B4: PR002410 (antibody, human IgG1, kappa, V domains shown)
VH: B3 VH
VL: B3 VL with C87Y
notes: anti-B7-H4 H2L2 recombinant fully human antibody, human IgG1 / kappa; also called PR002037 variant
For B4, the EC50 [5] was 1.87 nM, the “Maximum MFI” value [5] was 245000 MFI and the EC50 [6] was 2.08 nM. The “Maximum MFI” value [6] was 1.86e+06 MFI, the EC50 [7] was 2.38 nM and the “Maximum MFI” value [7] was 1.55e+06 MFI.

B5: PR001840 (antibody, human IgG1, V domains shown)
VH: EVQLVESGGGLVQPGGSLRLSCAASGFTFSSYWMHWVRQAPGKGLVWVSRINSDGSSTSYADSVQGRFTISRDNAKNTLYLQMNSLRAEDTAVYYCVRKGSSSYYHYSIEDDWGQGTLVTVSS
notes: as for B1
With B5 the EC50 [8] was 1.25 nM, the “Maximum MFI” value [8] was 7300 MFI and the EC50 [9] was 0.37 nM. The “Maximum MFI” value [9] was 1670 MFI.

B6: PR001836 (antibody, human IgG1, V domains shown)
VH: EVQLLESGGGLVQPGGSLRLSCAASGFIFSNFAMTWVRQPPEKGLKWVSSINGSGFNTYYTDSVKGRFTISRDNSRNTLYLQMNRLTAEDTAVYFCAKEGSSETDDHYYNVDVWGQGTTVTVSS
notes: as for B1
In the case of B6, the EC50 [9] is reported as 0.28 nM, the “Maximum MFI” value [9] is reported as 1830 MFI and the EC50 [3] is reported as 2.41 nM. The “Maximum MFI” value [3] was 15900 MFI.

B7: PR001774 (antibody, human IgG1, V domains shown)
VH: EVQLVESGGGLVQPGGSLRLSCAASGFTFSSFAMTWVRQAPEKGLEWVSTISGSGDTTYYADSVKGRFTISRDSSKNTLYLQMNSLRAEDSAVYFCAKEATAMASDYYYGVDVWGQGTTVTVSS
notes: as for B1
B7 was tested, and the EC50 [10] was 1.27 nM, the “Maximum MFI” value [10] was 1540 MFI and the EC50 [11] was 6.73 nM. The “Maximum MFI” value [11] was 48000 MFI.

B8: PR001476 (antibody, human IgG1, kappa, V domains shown)
VH: QVQLVESGGGVVQPGRSLRLSCAASGFTFRSFGMHWVRQAPGKGLEWVAVISYDGSNEYYADSVKGRFIISRDNSKDTLYLQMNSLRAGDTAVYYCAKGGGLRWYFAYWGQGTLVTVSS
VL: EIVMTQSPATLSVSPGERATLSCRASQSISSNLGWYQQKPGQAPRLLIYGASTRATGIPARFSGSGSGTEFTLTISSLQSEDFAVYYCQQYNSWPPLTFGGGTKVEIKR
notes: anti-B7-H4 H2L2 recombinant fully human antibody, human IgG1 / kappa; also called 80C8-2E9 clone
In the case of B8, the EC50 [5] is reported as 0.367 nM, the “Maximum MFI” value [5] is reported as 239000 MFI and the EC50 [6] is reported as 1.1 nM. For the same binder, the “Maximum MFI” value [6] was 1.82e+06 MFI, the EC50 [7] was 3.61 nM and the “Maximum MFI” value [7] was 353000 MFI.

B9: PR001767 (antibody, human IgG1, V domains shown)
VH: EVQLVETGGGLIQPGGSLRLSCAASGFTVSSNYMSWVRQAPGKGLEWVSVIYSDGSTYYADSVKGRFTISRDNSKNTLYLQMNSLRAEDTAVYYCARDRYYGSGNYPTAYYGMDVRGQGTTVTVSS
notes: as for B1
B9 was tested, and the EC50 [1] was 5.87 nM, the “Maximum MFI” value [1] was 1450 MFI and the EC50 [2] was 25 nM. For the same binder, the “Maximum MFI” value [2] was 68400 MFI.

B10: PR001763 (antibody, human IgG1, V domains shown)
VH: EVQLLESGGGLVQPGGSLRLSCTASGFTFSNYAMSWVRQAPEKGLEWVSSISGSGGSTFYADSVKGRFTISRDNSKNTLYLQMNRLTAEDTAVYYCAKEGSNGTDDYHYDIDVWGQGTTVTVSS
notes: as for B1
For B10, the EC50 [12] was 0.616 nM, the “Maximum MFI” value [12] was 1600 MFI and the “Maximum MFI” value [2] was 57700 MFI.

B11: PR001768 (antibody, human IgG1, V domains shown)
VH: EVQLLESGGGLVQPGGSLRLSCAASGFTFSNYAMTWVRQAPGKGLEWVSSISGSGDSTYYADSVKGRFTISRDNSKNTLYLQMNSLRAEDTAVYYCAKEGTGTTSDYYYNVDVWGQGTTVTVSS
notes: as for B1
For B11, the EC50 [11] was 6.97 nM, the “Maximum MFI” value [11] was 62200 MFI and the EC50 [1] was 0.846 nM. The “Maximum MFI” value [1] was 1550 MFI.

B12: PR001830 (antibody, human IgG1, V domains shown)
VH: B10 VH with R85S, T87R, Y95F, N102S, G103E, Y107H, H108Y, D110N, I111V
notes: as for B1
B12 was tested, and the EC50 [3] was 0.899 nM, the “Maximum MFI” value [3] was 14000 MFI and the EC50 [4] was 0.209 nM. The “Maximum MFI” value [4] was 1830 MFI.

B13: PR001771 (antibody, human IgG1, V domains shown)
VH: B11 VH with A40P, D56G
notes: as for B1
With B13 the EC50 [10] was 0.532 nM, the “Maximum MFI” value [10] was 1720 MFI and the EC50 [11] was 3.77 nM. The “Maximum MFI” value [11] was 65700 MFI.

B14: PR001781 (antibody, human IgG1, V domains shown)
VH: B11 VH with P14L, N31S, G42E, D56G, S57N, G100R, S105G
notes: as for B1
B14 was tested, and the EC50 [13] was 3.1 nM, the “Maximum MFI” value [13] was 58300 MFI and the EC50 [14] was 0.492 nM. For the same binder, the “Maximum MFI” value [14] was 1760 MFI.

B15: PR001758 (antibody, human IgG1, V domains shown)
VH: EVQLLESGGGLVQLGGSLRLSCAASGFTFSRYAMTWVRQAPEKGLEWVSSISGSGDDTYYGDSVKGRFTISRDNSQNTVYLQMNSLRAEDTAVYFCAKEKAGTTGDYYYNVDVWGQGTTVTVSS
notes: anti-4-1BB fully human heavy-chain-only antibody (HCAb): VH fused to human IgG1 Fc
In the case of B15, the EC50 [12] is reported as 0.212 nM, the “Maximum MFI” value [12] is reported as 1640 MFI and the EC50 [15] is reported as 0.575 nM. The “Maximum MFI” value [15] was 11200 MFI.

B16: PR001780 (antibody, human IgG1, V domains shown)
VH: B7 VH with V5L, V12I, E42G, T57N, S74N, S91T, A100D, M103V, G110N, V111I
notes: as for B1
For B16, the EC50 [13] was 2.99 nM, the “Maximum MFI” value [13] was 55500 MFI and the EC50 [14] was 0.708 nM. The “Maximum MFI” value [14] was 1700 MFI.

B17: PR001838 (antibody, human IgG1, V domains shown)
VH: EVQLLESGGGLVQPGGSLRLSCAASGFTFSNYAMSWFRQPPETGLKWVSSIDGSGGDTYYADSVKGRFTISRDNSKNTLYLQMNSLRAEDTAVYYCAKEGSHGTDDSHYDVDVWGQGTTVTVSS
notes: as for B1
In the case of B17, the EC50 [8] is reported as 1.09 nM, the “Maximum MFI” value [8] is reported as 13400 MFI and the EC50 [9] is reported as 0.248 nM. For the same binder, the “Maximum MFI” value [9] was 1770 MFI, the EC50 [16] was 0.851 nM and the “Maximum MFI” value [16] was 102000 MFI. The EC50 [17] was 0.329 nM.
